Data taken from the supplement of paper PMC10567573.

B1: FBXO3 (parent)
chain: DEEERRRRVFDVPIRRRRCSRLF

Variants of: B1
Assay: protein stability index of a GFP-peptide fusion (GPS, HEK-293T) (PSI 1-6); higher = more stable
Details: c terminus: native
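Also: lentivirally expressed fusions sorted by FACS into six bins by GFP to DsRed ratio, PSI derived from sequencing read proportions per bin multiplied by bin number.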

**Q.** Which protein stability index does the source give for DEEERRRDVFDVPIRRRRCSRLF [R8D] here?
**A.** 3.58

**Q.** For DEEERRRAVFDVPIRRRRCSRLF [R8A], which protein stability index is on record?
**A.** 3.74

**Q.** With DEEERRREVFDVPIRRRRCSRLF [R8E] as the variant, how does the protein stability index read?
**A.** 3.64

**Q.** Which protein stability index does the source give for DEEERRRFVFDVPIRRRRCSRLF [R8F] here?
**A.** 1.28

**Q.** With DEEERRRCVFDVPIRRRRCSRLF [R8C] as the variant, how does the protein stability index read?
**A.** 2.33

**Q.** For DEEKRRRRVFDVPIRRRRCSRLF [E4K], which protein stability index is on record?
**A.** 1.98

**Q.** For DEEFRRRRVFDVPIRRRRCSRLF [E4F], which protein stability index is on record?
**A.** 2.13

**Q.** Which protein stability index does the source give for DEERRRRRVFDVPIRRRRCSRLF [E4R] here?
**A.** 2.9

**Q.** For DEEYRRRRVFDVPIRRRRCSRLF [E4Y], which protein stability index is on record?
**A.** 2.14

**Q.** For DEEIRRRRVFDVPIRRRRCSRLF [E4I], which protein stability index is on record?
**A.** 2.16

**Q.** Which protein stability index does the source give for DEEVRRRRVFDVPIRRRRCSRLF [E4V] here?
**A.** 1.86

**Q.** Which protein stability index does the source give for DEEMRRRRVFDVPIRRRRCSRLF [E4M] here?
**A.** 3.23

**Q.** For DEENRRRRVFDVPIRRRRCSRLF [E4N], which protein stability index is on record?
**A.** 1.92

**Q.** With DEEPRRRRVFDVPIRRRRCSRLF [E4P] as the variant, how does the protein stability index read?
**A.** 2.29

**Q.** For DEEQRRRRVFDVPIRRRRCSRLF [E4Q], which protein stability index is on record?
**A.** 2.72

**Q.** Which protein stability index does the source give for DEEDRRRRVFDVPIRRRRCSRLF [E4D] here?
**A.** 3.66

**Q.** With DEEGRRRRVFDVPIRRRRCSRLF [E4G] as the variant, how does the protein stability index read?
**A.** 2.48

**Q.** Which protein stability index does the source give for DEESRRRRVFDVPIRRRRCSRLF [E4S] here?
**A.** 2.08

**Q.** With DEETRRRRVFDVPIRRRRCSRLF [E4T] as the variant, how does the protein stability index read?
**A.** 2.14

**Q.** Which protein stability index does the source give for DEEARRRRVFDVPIRRRRCSRLF [E4A] here?
**A.** 1.98

**Q.** With DEEWRRRRVFDVPIRRRRCSRLF [E4W] as the variant, how does the protein stability index read?
**A.** 1.73

**Q.** For DEECRRRRVFDVPIRRRRCSRLF [E4C], which protein stability index is on record?
**A.** 2.58

**Q.** Which protein stability index does the source give for DEELRRRRVFDVPIRRRRCSRLF [E4L] here?
**A.** 1.59

**Q.** Which protein stability index does the source give for DEEHRRRRVFDVPIRRRRCSRLF [E4H] here?
**A.** 1.99

**Q.** With DEIERRRRVFDVPIRRRRCSRLF [E3I] as the variant, how does the protein stability index read?
**A.** 1.99

**Q.** Which protein stability index does the source give for DEAERRRRVFDVPIRRRRCSRLF [E3A] here?
**A.** 1.88

**Q.** With DENERRRRVFDVPIRRRRCSRLF [E3N] as the variant, how does the protein stability index read?
**A.** 2.79

**Q.** With DEMERRRRVFDVPIRRRRCSRLF [E3M] as the variant, how does the protein stability index read?
**A.** 2.53

**Q.** Which protein stability index does the source give for DERERRRRVFDVPIRRRRCSRLF [E3R] here?
**A.** 2.34

**Q.** With DECERRRRVFDVPIRRRRCSRLF [E3C] as the variant, how does the protein stability index read?
**A.** 1.94

**Q.** For DEDERRRRVFDVPIRRRRCSRLF [E3D], which protein stability index is on record?
**A.** 2.63

**Q.** With DELERRRRVFDVPIRRRRCSRLF [E3L] as the variant, how does the protein stability index read?
**A.** 1.48

**Q.** With DEPERRRRVFDVPIRRRRCSRLF [E3P] as the variant, how does the protein stability index read?
**A.** 2.32

**Q.** For DEGERRRRVFDVPIRRRRCSRLF [E3G], which protein stability index is on record?
**A.** 2.19

**Q.** Which protein stability index does the source give for DEHERRRRVFDVPIRRRRCSRLF [E3H] here?
**A.** 2.18

**Q.** With DEKERRRRVFDVPIRRRRCSRLF [E3K] as the variant, how does the protein stability index read?
**A.** 2.68

**Q.** With DEVERRRRVFDVPIRRRRCSRLF [E3V] as the variant, how does the protein stability index read?
**A.** 2.54

**Q.** With DESERRRRVFDVPIRRRRCSRLF [E3S] as the variant, how does the protein stability index read?
**A.** 1.91

**Q.** With DEQERRRRVFDVPIRRRRCSRLF [E3Q] as the variant, how does the protein stability index read?
**A.** 2.57

**Q.** With DEYERRRRVFDVPIRRRRCSRLF [E3Y] as the variant, how does the protein stability index read?
**A.** 1.84

**Q.** Which protein stability index does the source give for DETERRRRVFDVPIRRRRCSRLF [E3T] here?
**A.** 1.81

**Q.** Which protein stability index does the source give for DVEERRRRVFDVPIRRRRCSRLF [E2V] here?
**A.** 1.95

**Q.** For DFEERRRRVFDVPIRRRRCSRLF [E2F], which protein stability index is on record?
**A.** 1.97

**Q.** Which protein stability index does the source give for DCEERRRRVFDVPIRRRRCSRLF [E2C] here?
**A.** 1.71

**Q.** For DSEERRRRVFDVPIRRRRCSRLF [E2S], which protein stability index is on record?
**A.** 2.21

**Q.** For DNEERRRRVFDVPIRRRRCSRLF [E2N], which protein stability index is on record?
**A.** 3.05

**Q.** Which protein stability index does the source give for DGEERRRRVFDVPIRRRRCSRLF [E2G] here?
**A.** 2.58

**Q.** For DLEERRRRVFDVPIRRRRCSRLF [E2L], which protein stability index is on record?
**A.** 1.45

**Q.** Which protein stability index does the source give for DAEERRRRVFDVPIRRRRCSRLF [E2A] here?
**A.** 1.49

**Q.** With DREERRRRVFDVPIRRRRCSRLF [E2R] as the variant, how does the protein stability index read?
**A.** 2.33

**Q.** With DWEERRRRVFDVPIRRRRCSRLF [E2W] as the variant, how does the protein stability index read?
**A.** 2.25

**Q.** With DHEERRRRVFDVPIRRRRCSRLF [E2H] as the variant, how does the protein stability index read?
**A.** 1.79

**Q.** For DDEERRRRVFDVPIRRRRCSRLF [E2D], which protein stability index is on record?
**A.** 3.08

**Q.** With DPEERRRRVFDVPIRRRRCSRLF [E2P] as the variant, how does the protein stability index read?
**A.** 2.15

**Q.** For DQEERRRRVFDVPIRRRRCSRLF [E2Q], which protein stability index is on record?
**A.** 3.19

**Q.** For DMEERRRRVFDVPIRRRRCSRLF [E2M], which protein stability index is on record?
**A.** 1.9

**Q.** With DTEERRRRVFDVPIRRRRCSRLF [E2T] as the variant, how does the protein stability index read?
**A.** 1.65

**Q.** For DKEERRRRVFDVPIRRRRCSRLF [E2K], which protein stability index is on record?
**A.** 1.36

**Q.** With DIEERRRRVFDVPIRRRRCSRLF [E2I] as the variant, how does the protein stability index read?
**A.** 2.52

**Q.** For DEEERSRRVFDVPIRRRRCSRLF [R6S], which protein stability index is on record?
**A.** 3.8

**Q.** With DEEERIRRVFDVPIRRRRCSRLF [R6I] as the variant, how does the protein stability index read?
**A.** 2.36

**Q.** With DEEERVRRVFDVPIRRRRCSRLF [R6V] as the variant, how does the protein stability index read?
**A.** 3.2

**Q.** For DEEERDRRVFDVPIRRRRCSRLF [R6D], which protein stability index is on record?
**A.** 4.26

**Q.** For DEEERFRRVFDVPIRRRRCSRLF [R6F], which protein stability index is on record?
**A.** 1.35

**Q.** Which protein stability index does the source give for DEEERCRRVFDVPIRRRRCSRLF [R6C] here?
**A.** 2.83

**Q.** Which protein stability index does the source give for DEEERGRRVFDVPIRRRRCSRLF [R6G] here?
**A.** 4.09

**Q.** For DEEERPRRVFDVPIRRRRCSRLF [R6P], which protein stability index is on record?
**A.** 3.79

**Q.** For DEEERNRRVFDVPIRRRRCSRLF [R6N], which protein stability index is on record?
**A.** 3.87

**Q.** Which protein stability index does the source give for DEEERLRRVFDVPIRRRRCSRLF [R6L] here?
**A.** 2.69

**Q.** With DEEERTRRVFDVPIRRRRCSRLF [R6T] as the variant, how does the protein stability index read?
**A.** 3.66

**Q.** With DEEERKRRVFDVPIRRRRCSRLF [R6K] as the variant, how does the protein stability index read?
**A.** 3.35

**Q.** Which protein stability index does the source give for DEEERARRVFDVPIRRRRCSRLF [R6A] here?
**A.** 3.51

**Q.** Which protein stability index does the source give for DEEERYRRVFDVPIRRRRCSRLF [R6Y] here?
**A.** 1.78

**Q.** For DEEERWRRVFDVPIRRRRCSRLF [R6W], which protein stability index is on record?
**A.** 1.56

**Q.** With DEEERERRVFDVPIRRRRCSRLF [R6E] as the variant, how does the protein stability index read?
**A.** 4.16

**Q.** With DEEERQRRVFDVPIRRRRCSRLF [R6Q] as the variant, how does the protein stability index read?
**A.** 3.79

**Q.** Which protein stability index does the source give for DEEERHRRVFDVPIRRRRCSRLF [R6H] here?
**A.** 3.17

**Q.** Which protein stability index does the source give for DEEERMRRVFDVPIRRRRCSRLF [R6M] here?
**A.** 2.58

**Q.** Which protein stability index does the source give for DEEECRRRVFDVPIRRRRCSRLF [R5C] here?
**A.** 2.57

**Q.** Which protein stability index does the source give for DEEEIRRRVFDVPIRRRRCSRLF [R5I] here?
**A.** 3.44

**Q.** For DEEEGRRRVFDVPIRRRRCSRLF [R5G], which protein stability index is on record?
**A.** 3.54

**Q.** With DEEEHRRRVFDVPIRRRRCSRLF [R5H] as the variant, how does the protein stability index read?
**A.** 3.41

**Q.** For DEEELRRRVFDVPIRRRRCSRLF [R5L], which protein stability index is on record?
**A.** 3.12

**Q.** Which protein stability index does the source give for DEEEPRRRVFDVPIRRRRCSRLF [R5P] here?
**A.** 3.3

**Q.** For DEEEFRRRVFDVPIRRRRCSRLF [R5F], which protein stability index is on record?
**A.** 3.24

**Q.** For DEEEARRRVFDVPIRRRRCSRLF [R5A], which protein stability index is on record?
**A.** 3.9

**Q.** With DEEESRRRVFDVPIRRRRCSRLF [R5S] as the variant, how does the protein stability index read?
**A.** 3.55

**Q.** For DEEETRRRVFDVPIRRRRCSRLF [R5T], which protein stability index is on record?
**A.** 3.51

**Q.** With DEEEERRRVFDVPIRRRRCSRLF [R5E] as the variant, how does the protein stability index read?
**A.** 4.12

**Q.** For DEEEKRRRVFDVPIRRRRCSRLF [R5K], which protein stability index is on record?
**A.** 3.32

**Q.** Which protein stability index does the source give for DEEEDRRRVFDVPIRRRRCSRLF [R5D] here?
**A.** 3.64

**Q.** Which protein stability index does the source give for DEEEMRRRVFDVPIRRRRCSRLF [R5M] here?
**A.** 3.59

**Q.** Which protein stability index does the source give for DEEENRRRVFDVPIRRRRCSRLF [R5N] here?
**A.** 3.77

**Q.** With DEEEQRRRVFDVPIRRRRCSRLF [R5Q] as the variant, how does the protein stability index read?
**A.** 4.1

**Q.** With DEEEWRRRVFDVPIRRRRCSRLF [R5W] as the variant, how does the protein stability index read?
**A.** 2.23

**Q.** Which protein stability index does the source give for DEEEYRRRVFDVPIRRRRCSRLF [R5Y] here?
**A.** 2.85
